Biological target: the molecule itself
Assay: crystal structure

B1: P2 Cox protein of bacteriophage P2 (natural protein, UniProt P07695 1-91, looked up)
chain: MSKQVTLMTDAIPYQEFAKLIGKSTGAVRRMIDKGKLPVIDMTDPQSASGRAGEYWVYLPAWNNGLKLAYESRPKEIRDGWLMWLGLGEPR
B1: binds.

Source: publication PMC3936717 (Nucleic Acids Research, 2013)
